Assay results published in paper PMC13169712.
Where a chain is given by its changes, count along the chain named. In names and notes the source's numbering stands. Square brackets hold non-standard residues; d marks the D form. Ends that are not written are not given here. Hyp = O=C(O)[C@@H]1C[C@@H](O)CN1

B1: Ara h 6c R90Q; Q91A (protein)
chain: SCERQVDRVNLKPCEQHIMQRIMGEQEQYDSYDIRSTRSSDQQQRCCDELNEMENTQGCMCEALQQIMENQCDRLQDQAMVQQFKRELMSLPQQCNFRAPQRCDLDVSGGRC
B2: Ara h 6c Q113R; R114E (protein)
chain: B1 chain with Q78R, A79Q, Q101R, R102E
B3: Ara h 6c D19R; E27A; N82A (protein)
chain: B1 chain with D7R, E15A, N70A, Q78R, A79Q
B4: nonhydroxylated DPYSPS containing peptide (…) (peptide)
peptide: EDSYERDPYSPSQD
B5: hydroxylated DPYSPS containing peptide (…^OHSQD) (peptide)
peptide: EDSYERDPYS[Hyp]SQD

What was measured:
[1] = target: 1H9 human IgE mAb; experiment: ELISA; details: chain shown with the change; mAb 10 µg/mL (highest point of the titration); parent: est. 3.3; read off a plot
[2] = target: 13D9 human IgE mAb; experiment: ELISA; details: chain shown with the change; mAb 10 µg/mL (highest point of the titration); parent: est. 3.5; read off a plot
[3] = target: 16A8 human IgE mAb; experiment: ELISA; details: chain shown with the change; mAb 10 µg/mL (highest point of the titration); parent: est. 3.4; read off a plot
[4] = target: 8F3 human IgE mAb; experiment: ELISA; details: chain shown with the change; mAb 10 µg/mL (highest point of the titration); parent: est. 3.6; read off a plot
[5] = target: 38B7 human IgE mAb (human); experiment: SPR; Carterra LSA; antibody as ligand, allergen or peptide as analyte; how the antibody was held for these pairs is not told
38B7 human IgE mAb (human), sequence (heavy, as listed by the source, chain 1 of 2): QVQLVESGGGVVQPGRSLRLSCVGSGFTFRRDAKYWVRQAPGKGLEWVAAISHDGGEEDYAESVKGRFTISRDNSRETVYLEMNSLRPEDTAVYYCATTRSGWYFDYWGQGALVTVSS
38B7 human IgE mAb (human), sequence (light, as listed by the source, chain 2 of 2): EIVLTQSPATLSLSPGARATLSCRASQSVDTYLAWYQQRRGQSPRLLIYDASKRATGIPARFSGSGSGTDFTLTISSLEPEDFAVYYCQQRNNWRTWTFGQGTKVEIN

13D9 human IgE mAb, sequence (chain, as listed by the source, chain 1 of 2): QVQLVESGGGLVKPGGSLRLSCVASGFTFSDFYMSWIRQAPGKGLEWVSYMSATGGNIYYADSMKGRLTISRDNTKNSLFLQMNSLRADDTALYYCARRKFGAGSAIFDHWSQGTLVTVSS
13D9 human IgE mAb, sequence (chain, as listed by the source, chain 2 of 2): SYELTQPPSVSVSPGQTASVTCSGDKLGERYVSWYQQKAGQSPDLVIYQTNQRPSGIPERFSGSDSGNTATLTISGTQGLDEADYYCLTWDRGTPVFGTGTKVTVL
1H9 human IgE mAb, sequence (chain, as listed by the source, chain 1 of 2): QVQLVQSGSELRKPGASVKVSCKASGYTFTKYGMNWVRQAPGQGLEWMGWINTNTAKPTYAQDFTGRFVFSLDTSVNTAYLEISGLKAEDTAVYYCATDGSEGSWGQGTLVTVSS
1H9 human IgE mAb, sequence (chain, as listed by the source, chain 2 of 2): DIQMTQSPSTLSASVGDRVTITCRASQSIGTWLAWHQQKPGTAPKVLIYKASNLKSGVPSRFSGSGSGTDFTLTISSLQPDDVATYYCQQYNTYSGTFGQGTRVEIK
16A8 human IgE mAb, sequence (chain, as listed by the source, chain 1 of 2): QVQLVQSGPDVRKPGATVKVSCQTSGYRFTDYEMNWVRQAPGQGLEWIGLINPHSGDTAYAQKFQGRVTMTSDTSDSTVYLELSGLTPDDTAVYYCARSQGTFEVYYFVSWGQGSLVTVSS
16A8 human IgE mAb, sequence (chain, as listed by the source, chain 2 of 2): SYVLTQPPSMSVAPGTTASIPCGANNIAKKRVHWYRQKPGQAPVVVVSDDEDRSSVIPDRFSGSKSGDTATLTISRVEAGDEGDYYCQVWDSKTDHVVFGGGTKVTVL
8F3 human IgE mAb, sequence (chain, as listed by the source, chain 1 of 2): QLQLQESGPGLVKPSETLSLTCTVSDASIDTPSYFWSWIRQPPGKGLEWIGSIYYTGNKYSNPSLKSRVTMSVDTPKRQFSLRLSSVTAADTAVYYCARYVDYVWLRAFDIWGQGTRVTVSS
8F3 human IgE mAb, sequence (chain, as listed by the source, chain 2 of 2): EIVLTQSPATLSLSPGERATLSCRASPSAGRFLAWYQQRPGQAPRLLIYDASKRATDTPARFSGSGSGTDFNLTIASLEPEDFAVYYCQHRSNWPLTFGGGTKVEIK

Row | Binder | response [1] | response [2] | response [3] | response [4] | Kd [5] | koff [5] | kon [5]
1 | B1 | 1.6 OD 450nm | 3.5 OD 450nm | 3.4 OD 450nm | 3.6 OD 450nm |  |  | 
2 | B2 | 3.4 OD 450nm | 3.5 OD 450nm | 2.6 OD 450nm |  |  |  | 
3 | B3 |  | 1.6 OD 450nm |  |  |  |  | 
4 | B4 |  |  |  |  | 7.1 µM | 0.0887 s⁻¹ | 16900 M⁻¹ s⁻¹
5 | B5 |  |  |  |  | 0.02 µM | 0.00198 s⁻¹ | 101000 M⁻¹ s⁻¹
